Sequences and labels used below:
B1: Urease accessory protein UreF (Helicobacter pylori), Q09065 (parent)
chain: MDKGKSVKSTEKSVGMPPKTPKTDNNAHVDNEFLILQVNDAVFPIGSYTHSFGLETYIQQKKVTNKESALEYLKANLSSQFLYTEMLSLKLTYESALQQDLKKILGVEEVIMLSTSPMELRLANQKLGNRFIKTLQAMNELDMGEFFNAYAQKTKDPTHATSYGVFAASLGIELKKALRHYLYAQTSNMVINCVKSVPLSQNDGQKILLSLQSPFNQLIEKTLELDESHLCTASVQNDIKAMQHESLYSRLYMS

Here are results for one variant from IntAct's records for PubMed 24115911.

This test covers variants of B1. Conditions: with ureg_helpy ureG.
Regarding MDKGKSVKSTEKSVGMPPKTPKTDNNAHVDNEFLILQVNDAVFPIGSYTHSFGLETYIQQKKVTNKESALEYLKANLSSQFLYTEMLSLKLTYESALQQDLKKILGVEEVIMLSTSPMELRLANQKLGNRFIKTLQAMNELDMGEFFNAYAQKTKDPTHATSYGVFAASLGIELKKALAHYLDAQTSNMVINCVKSVPLSQNDGQKILLSLQSPFNQLIEKTLELDESHLCTASVQNDIKAMQHESLYSRLYMS [R179A;Y183D], the “effect of a mutation on the interaction” value is “disrupting interaction strength”.
